The labels stand for the following.
T1: human CD98hc (human)
T1 chain: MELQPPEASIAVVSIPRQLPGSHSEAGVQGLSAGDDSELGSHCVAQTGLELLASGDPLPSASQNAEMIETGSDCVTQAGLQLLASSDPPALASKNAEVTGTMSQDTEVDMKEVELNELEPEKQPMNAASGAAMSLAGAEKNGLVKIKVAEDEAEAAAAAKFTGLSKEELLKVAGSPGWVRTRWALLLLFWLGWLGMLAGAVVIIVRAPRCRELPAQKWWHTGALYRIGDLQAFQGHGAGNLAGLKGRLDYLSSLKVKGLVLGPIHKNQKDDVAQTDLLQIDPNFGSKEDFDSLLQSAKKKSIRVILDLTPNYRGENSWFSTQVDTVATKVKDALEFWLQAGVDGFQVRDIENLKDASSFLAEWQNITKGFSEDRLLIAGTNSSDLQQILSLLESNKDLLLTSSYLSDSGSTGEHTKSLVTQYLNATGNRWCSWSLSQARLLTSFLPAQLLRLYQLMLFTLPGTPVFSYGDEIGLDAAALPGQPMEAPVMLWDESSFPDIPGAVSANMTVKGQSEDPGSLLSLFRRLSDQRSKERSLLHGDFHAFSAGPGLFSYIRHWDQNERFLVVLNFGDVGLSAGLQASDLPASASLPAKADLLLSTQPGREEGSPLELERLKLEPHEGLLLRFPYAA

T2: human TfR apical domain (human)
T2 chain: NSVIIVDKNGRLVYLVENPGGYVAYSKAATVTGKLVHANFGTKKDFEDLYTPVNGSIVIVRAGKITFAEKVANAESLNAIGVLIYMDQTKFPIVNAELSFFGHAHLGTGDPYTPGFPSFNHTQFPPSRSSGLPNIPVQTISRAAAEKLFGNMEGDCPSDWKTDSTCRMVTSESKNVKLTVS

B1: LLB2-10-8-d6 (protein)
chain: APELLGGPSVFLFPPKPKDTLMISRTPEVTCVVVDVSHEDPEVKFNWYVDGVEVHNAKTKPREEQYNSTYRVVSVLTVLHQDWLNGKEYKCKVSNKALPAPIEKTISKAKGQPREPQVYTLPPSRDELTKNQVSLTCLVKGFYPSDIAVLWNSRFVLENNYKTTPPVLDSDGSFFLYSKLTVDKSRWQQGNVFACNVYHEALHNHYTFKNLALSPGK
B2: LLB2-37 (protein)
chain: APELLGGPSVFLFPPKPKDTLMISRTPEVTCVVVDVSHEDPEVKFNWYVDGVEVHNAKTKPREEQYNSTYRVVSVLTVLHQDWLNGKEYKCKVSNKALPAPIEKTISKAKGQPREPQVYTLPPSRDELTKNQVSLTCLVKGFYPSDIAVLWNSQFHLENNYKTTPPVLDSDGSFFLYSKLTVDKSRWQQGNIFACNVYHEALHNHYTFKNLLLSPGK
B3: LLB2-10-8.d28 (protein)
chain: APELLGGPSVFLFPPKPKDTLMISRTPEVTCVVVDVSHEDPEVKFNWYVDGVEVHNAKTKPREEQYNSTYRVVSVLTVLHQDWLNGKEYKCKVSNKALPAPIEKTISKAKGQPREPQVYTLPPSRDELTKNQVSLTCLVKGFYPSDIAVLWSSRYVLENNYKTTPPVLDSDGSFFLYSKLTVDKSRWQQGNVFACNVYHEALHNHYTFKNLALSPGK
B4: LLB2-10-8-d12 (protein)
chain: APELLGGPSVFLFPPKPKDTLMISRTPEVTCVVVDVSHEDPEVKFNWYVDGVEVHNAKTKPREEQYNSTYRVVSVLTVLHQDWLNGKEYKCKVSNKALPAPIEKTISKAKGQPREPQVYTLPPSRDELTKNQVSLTCLVKGFYPSDIAVLWNSHYELENNYKTTPPVLDSDGSFFLYSKLTVDKSRWQQGNVFACNVYHEALHNHYTFKNLALSPGK
B5: LLB2.10.8.10.3 (protein)
chain: APELLGGPSVFLFPPKPKDTLMISRTPEVTCVVVDVSHEDPEVKFNWYVDGVEVHNAKTKPREEQYNSTYRVVSVLTVLHQDWLNGKEYKCKVSNKALPAPIEKTISKAKGQPREPQVYTLPPSRDELTKNQVSLTCLVKGFYPSDIAVLWNSRFVLENNYKTTPPVLDSDGSFFLYSKLTVDKSRWQQGEIFACNVYHEALHNHYTFKNLRLSPGK
B6: LLB2-10-8 (protein)
chain: APELLGGPSVFLFPPKPKDTLMISRTPEVTCVVVDVSHEDPEVKFNWYVDGVEVHNAKTKPREEQYNSTYRVVSVLTVLHQDWLNGKEYKCKVSNKALPAPIEKTISKAKGQPREPQVYTLPPSRDELTKNQVSLTCLVKGFYPSDIAVLWNSRFVLENNYKTTPPVLDSDGSFFLYSKLTVDKSRWQQGEIFACNVYHEALHNHYTFKNLALSPGK
B7: LLB1-3-16 (protein)
chain: APELLGGPSVFLFPPKPKDTLMISRTPEVTCVVVDVSHEDPEVKFNWYVDGVEVHNAKTKPREEQYNSTYRVVSVLTVLHQDWLNGKEYKCKVSNKALPAPIEKTISKAKGQPREPQVYTLPPSRDELTKNQVSLTCLVKGFYPSDIAVEWRTYKPYETNYKTTPPVLDSDGSFFLYSKLTVDKSRWQQGDIFVCDVLHEALHNHFTIKKLSLSPGK
B8: LLB1-3-16-2 (protein)
chain: APELLGGPSVFLFPPKPKDTLMISRTPEVTCVVVDVSHEDPEVKFNWYVDGVEVHNAKTKPREEQYNSTYRVVSVLTVLHQDWLNGKEYKCKVSNKALPAPIEKTISKAKGQPREPQVYTLPPSRDELTKNQVSLTCLVKGFYPSDIAVEWRTYKPYETNYKTTPPVLDSDGSFFLYSKLTVDKSRWQQGDIFVCDVMHEALHNHFTIKKLSLSPGK
B9: 35.d1.5 (protein)
chain: ASTKGPSVFPLAPSSKSTSGGTAALGCLVKDYFPEPVTVSWNSGALTSGVHTFPAVLQSSGLYSLSSVVTVPSSSLGTQTYICNVNHKPSNTKVDKKVEPKSCDKTHTCPPCPAPELLGGPSVFLFPPKPKDTLMISRTPEVTCVVVDVSHEDPEVKFNWYVDGVEVHNAKTKPREEQYNSTYRVVSVLTVLHQDWLNGKEYKCKVSNKALPAPIEKTISKAKGQPREPQVYTLPPSRDELTKNQVSLTCLVKGFYPSDIAVEWESYGNEWSSYKTTPPVLDSDGSFFLYSKLTVSKSEWQQGFVFSCSVMHEALHNHYTQKSLSLSPELQLEESCAEAQDGELDGLWTT
B10: 35.d1.3 (protein)
chain: ASTKGPSVFPLAPSSKSTSGGTAALGCLVKDYFPEPVTVSWNSGALTSGVHTFPAVLQSSGLYSLSSVVTVPSSSLGTQTYICNVNHKPSNTKVDKKVEPKSCDKTHTCPPCPAPELLGGPSVFLFPPKPKDTLMISRTPEVTCVVVDVSHEDPEVKFNWYVDGVEVHNAKTKPREEQYNSTYRVVSVLTVLHQDWLNGKEYKCKVSNKALPAPIEKTISKAKGQPREPQVYTLPPSRDELTKNQVSLTCLVKGFYPSDIAVEWESYGTEWSSYKTTPPVLDSDGSFFLYSKLTVTKSEWQQGYVFSCSVMHEALHNHYTQKSLSLSPELQLEESCAEAQDGELDGLWTT
B11: 35.d1.23 (protein)
chain: ASTKGPSVFPLAPSSKSTSGGTAALGCLVKDYFPEPVTVSWNSGALTSGVHTFPAVLQSSGLYSLSSVVTVPSSSLGTQTYICNVNHKPSNTKVDKKVEPKSCDKTHTCPPCPAPELLGGPSVFLFPPKPKDTLMISRTPEVTCVVVDVSHEDPEVKFNWYVDGVEVHNAKTKPREEQYNSTYRVVSVLTVLHQDWLNGKEYKCKVSNKALPAPIEKTISKAKGQPREPQVYTLPPSRDELTKNQVSLTCLVKGFYPSDIAVEWESYGTEWTNYKTTPPVLDSDGSFFLYSKLTVSKEEWQQGFVFSCSVMHEALHNHYTQKSLSLSPELQLEESCAEAQDGELDGLWTT
B12: 35.d1.6 (protein)
chain: ASTKGPSVFPLAPSSKSTSGGTAALGCLVKDYFPEPVTVSWNSGALTSGVHTFPAVLQSSGLYSLSSVVTVPSSSLGTQTYICNVNHKPSNTKVDKKVEPKSCDKTHTCPPCPAPELLGGPSVFLFPPKPKDTLMISRTPEVTCVVVDVSHEDPEVKFNWYVDGVEVHNAKTKPREEQYNSTYRVVSVLTVLHQDWLNGKEYKCKVSNKALPAPIEKTISKAKGQPREPQVYTLPPSRDELTKNQVSLTCLVKGFYPSDIAVEWESYGTEWTSYKTTPPVLDSDGSFFLYSKLTVSKSEWQQGFVFSCSVMHEALHNHYTQKSLSLSPELQLEESCAEAQDGELDGLWTT
B13: 35.d1.15 (protein)
chain: ASTKGPSVFPLAPSSKSTSGGTAALGCLVKDYFPEPVTVSWNSGALTSGVHTFPAVLQSSGLYSLSSVVTVPSSSLGTQTYICNVNHKPSNTKVDKKVEPKSCDKTHTCPPCPAPELLGGPSVFLFPPKPKDTLMISRTPEVTCVVVDVSHEDPEVKFNWYVDGVEVHNAKTKPREEQYNSTYRVVSVLTVLHQDWLNGKEYKCKVSNKALPAPIEKTISKAKGQPREPQVYTLPPSRDELTKNQVSLTCLVKGFYPSDIAVEWESYGTEWSNYKTTPPVLDSDGSFFLYSKLTVSKSEWQQGYVFSCSVMHEALHNHYTQKSLSLSPELQLEESCAEAQDGELDGLWTT
B14: 35.d1.2 (protein)
chain: ASTKGPSVFPLAPSSKSTSGGTAALGCLVKDYFPEPVTVSWNSGALTSGVHTFPAVLQSSGLYSLSSVVTVPSSSLGTQTYICNVNHKPSNTKVDKKVEPKSCDKTHTCPPCPAPELLGGPSVFLFPPKPKDTLMISRTPEVTCVVVDVSHEDPEVKFNWYVDGVEVHNAKTKPREEQYNSTYRVVSVLTVLHQDWLNGKEYKCKVSNKALPAPIEKTISKAKGQPREPQVYTLPPSRDELTKNQVSLTCLVKGFYPSDIAVEWESYGTEWTSYKTTPPVLDSDGSFFLYSKLTVTKSEWQQGFVFSCSVMHEALHNHYTQKSLSLSPELQLEESCAEAQDGELDGLWTT
B15: 35.d1.16 (protein)
chain: ASTKGPSVFPLAPSSKSTSGGTAALGCLVKDYFPEPVTVSWNSGALTSGVHTFPAVLQSSGLYSLSSVVTVPSSSLGTQTYICNVNHKPSNTKVDKKVEPKSCDKTHTCPPCPAPELLGGPSVFLFPPKPKDTLMISRTPEVTCVVVDVSHEDPEVKFNWYVDGVEVHNAKTKPREEQYNSTYRVVSVLTVLHQDWLNGKEYKCKVSNKALPAPIEKTISKAKGQPREPQVYTLPPSRDELTKNQVSLTCLVKGFYPSDIAVEWESFGNEWSNYKTTPPVLDSDGSFFLYSKLTVSKSEWQQGFVFSCSVMHEALHNHYTQKSLSLSPELQLEESCAEAQDGELDGLWTT
B16: 35.d1.1 (protein)
chain: ASTKGPSVFPLAPSSKSTSGGTAALGCLVKDYFPEPVTVSWNSGALTSGVHTFPAVLQSSGLYSLSSVVTVPSSSLGTQTYICNVNHKPSNTKVDKKVEPKSCDKTHTCPPCPAPELLGGPSVFLFPPKPKDTLMISRTPEVTCVVVDVSHEDPEVKFNWYVDGVEVHNAKTKPREEQYNSTYRVVSVLTVLHQDWLNGKEYKCKVSNKALPAPIEKTISKAKGQPREPQVYTLPPSRDELTKNQVSLTCLVKGFYPSDIAVEWESYGNEWSSYKTTPPVLDSDGSFFLYSKLTVTKSEWQQGFVFSCSVMHEALHNHYTQKSLSLSPELQLEESCAEAQDGELDGLWTT

One assay addresses T1, human CD98hc. Nature of the assay: SPR. A general note: SPR reads the build-up and loss of mass on a sensor chip optically.
Broadly, the Kd is the constant that tells how readily two partners part at equilibrium. The low end stands for higher affinity, the high end for lower affinity. Turning to B1, the Kd was found to be 550 nM. B2: the Kd was found to be 610 nM. For B3, binding was put at a Kd of 4200 nM.

Turning to B4, the Kd is 2100 nM. B5 came in with a Kd of 43 nM. Same read-out and setting: in the case of B6 it was 170 nM; in that of B7, 32 nM; in that of B8, 175 nM.

A further assay addresses T2, human TfR apical domain. The assay is described as follows: SPR.
Regarding B9, the Kd was 13600 nM. Still for that read-out and setting: then B10, with 1300 nM.

B11 returned a Kd of 3500 nM.

The molecule B12 displayed a Kd of 11200 nM. Same read-out and setting: then B13, with 3600 nM; and B14, with 4300 nM. Turning to B15, binding was characterised by a dissociation constant (Kd) of 35600 nM. Take B16: the Kd worked out at 6200 nM.

The values above are taken from patent publication US20260308269 (published 2026).
